Publication doi:10.1101/2024.09.18.613619 (bioRxiv, 2024)

Target: T1, Rpn8 (Saccharomyces cerevisiae proteasome lid subunit) (S. cerevisiae, UniProt Q08723 1-338)
T1 sequence (looked up): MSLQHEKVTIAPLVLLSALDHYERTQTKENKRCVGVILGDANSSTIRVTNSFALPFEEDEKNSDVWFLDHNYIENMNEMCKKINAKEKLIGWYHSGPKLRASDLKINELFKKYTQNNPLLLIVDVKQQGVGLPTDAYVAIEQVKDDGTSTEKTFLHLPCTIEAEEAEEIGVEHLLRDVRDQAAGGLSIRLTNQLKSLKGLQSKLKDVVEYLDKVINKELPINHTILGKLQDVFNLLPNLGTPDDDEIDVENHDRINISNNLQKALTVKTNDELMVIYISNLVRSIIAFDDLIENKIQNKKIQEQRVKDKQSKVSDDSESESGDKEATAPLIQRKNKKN
Assay: two-hybrid

B1: Rpn11 (Saccharomyces cerevisiae proteasome lid subunit) (natural protein, S. cerevisiae, UniProt P43588 1-306, looked up)
chain: MERLQRLMMNSKVGSADTGRDDTKETVYISSIALLKMLKHGRAGVPMEVMGLMLGEFVDDYTVNVVDVFAMPQSGTGVSVEAVDDVFQAKMMDMLKQTGRDQMVVGWYHSHPGFGCWLSSVDVNTQKSFEQLNSRAVAVVVDPIQSVKGKVVIDAFRLIDTGALINNLEPRQTTSNTGLLNKANIQALIHGLNRHYYSLNIDYHKTAKETKMLMNLHKEQWQSGLKMYDYEEKEESNLAATKSMVKIAEQYSKRIEEEKELTEEELKTRYVGRQDPKKHLSETADETLENNIVSVLTAGVNSVAIK
β-galactosidase activity relative to the GlRpn8-GlRpn11 pair: ~2 fold
